# According to patent publication US20250074996A1 (Innovent, published 2025):
# Positions count from the first letter of the chain named. Read-outs that look alike come from different tables or passages of the source.
# B1: TS-F6-1 (antibody, human IgG1, kappa, L234A L235A)
# heavy: not shown
# light: DIQMTQTTSSLSASLGDRVTISCRASQDIRNYLNWYQQRPDGTIKLLIYYTSRLHSGVPSRFSGSGSGTDYSLTISNLDQEDFATYFCQQGNMLPWTFGGGTSLEIKRTVAAPSVFIFPPSDEQLKSGTASVVCLLNNFYPREAKVQWKVDNALQSGNSQESVTEQDSKDSTYSLSSTLTLSKADYEKHKVYACEVTHQGLSSPVTKSFNRGECGGGGSGGGGSQAVVTQEPSLTVSPGGTVTLTCRSSTGAVTTSNYANWVQQKPGQAPRGLIGGTNKRAPGVPARFSGSLLGDKAALTLLGAQPEDEAEYYCALWYSNLWVFGCGTKLTVLGGGGSGGGGSGGGGSGGGGSEVQLVESGGGLVQPGGSLKLSCAASGFTFNTYAMNWVRQASGKCLEWVGRIRSKYNNYATYYADSVKDRFTISRDDSKSTLYLQMNSLKTEDTAVYYCARHGNFGQSYVSWFAYWGQGTTVTVSS
# B2: TS-F6-2 (antibody, human IgG1, kappa, L234A L235A)
# heavy: not shown
# light: DIQMTQTTSSLSASLGDRVTISCRASQDIRNYLNWYQQRPDGTIKLLIYYTSRLHSGVPSRFSGSGSGTDYSLTISNLDQEDFATYFCQQGNMLPWTFGGGTSLEIKRTVAAPSVFIFPPSDEQLKSGTASVVCLLNNFYPREAKVQWKVDNALQSGNSQESVTEQDSKDSTYSLSSTLTLSKADYEKHKVYACEVTHQGLSSPVTKSFNRGECGGGGSGGGGSEVQLVESGGGLVQPGGSLKLSCAASGFTFNTYAMNWVRQASGKCLEWVGRIRSKYNNYATYYADSVKDRFTISRDDSKSTLYLQMNSLKTEDTAVYYCARHGNFGQSYVSWFAYWGQGTTVTVSSGGGGSGGGGSGGGGSGGGGSQAVVTQEPSLTVSPGGTVTLTCRSSTGAVTTSNYANWVQQKPGQAPRGLIGGTNKRAPGVPARFSGSLLGDKAALTLLGAQPEDEAEYYCALWYSNLWVFGCGTKLTVL
# B3: GPRC5D × CD3 (HB15H/hzsp34.24) (bispecific antibody, V domains shown)
# VH 1: QVQLVESGGGVVQPGRSLRLSCTASGFTFSSYGLHWVRQAPGKGLEWVAVIWYDGSNKYYIDSVKGRFIISRDNSKNTLYLQMNSLRAEDTAVYYCARFTMFRGITLDYWGQGTLVTVSS
# VL 1: DIQMTQSPSSLSASVGDRVTITCRASQRINSYLNWYQQKPGKAPKLLIYAASSLQSGVPSRFSGSGSGTDFTLTISNLQPEDFATYYCQQSYSTPLTFGGGTKVEIK
# VH 2: EVQLVESGGGLVQPGGSLKLSCAASGFTFNTYAMNWVRQASGKGLEWVGRIRSKYNNYATYYADSVKDRFTISRDDSKSTLYLQMNSLKTEDTAVYYCARHGNFGQSYVSWFAYWGQGTTVTVSS
# VL 2: QAVVTQEPSLTVSPGGTVTLTCRSSTGAVTTSNYANWVQQKPGQAPRGLIGGTNKRAPGVPARFSGSLLGDKAALTLLGAQPEDEAEYYCALWYSNLWVFGQGTKLTVL
# B4: GPRC5D×CD3 bispecific antibody hz5E12.1-P1/SP34.24 (bispecific antibody, V domains shown)
# VH 1: QVQLVQSGAEVKKPGASVKVSCKASGYTFIGYVMHWVRQAPGQGLEWMGYINPYNDVSQHQGKFKGRVTMTSDTSTSTVYMELSSLRSEDTAVYYCAREGRLGLRVLAYWGQGTLVTVSS
# VL 1: DIVMTQSPDSLAVSLGERATINCRASESVDSYGITFMNWYQQKPGQPPKLLIYAASNQGSGVPDRFSGSGSGTDFTLTISSLQAEDVAVYYCQQSKEVPWTFGQGTKLEIK
# VH 2: B3 VH 2
# VL 2: B3 VL 2
# B5: BCMA×CD3 bispecific antibody (38456/hzsp34.24) (bispecific antibody, V domains shown)
# VH 1: EVQLVESGGGLVQPGRSLRLSCAASGFTFGDYAIHWVRQAPGKGLEWVSGISWDSSSIAYADSVKGRFTISRDNAKNSLYLQMNSLRAEDTAVYYCAKDSPVRDSFGSIAFDIWGQGTMVTVSS
# VL 1: EIVLTQSPATLSLSPGERATLSCRASQSVSSYLAWYQQKPGQAPRLLIYDASKRATGIPARFSGSGSGTDFTLTISSLEPEDFAVYYCQQASALPLTFGGGTKVEIK
# VH 2: B3 VH 2
# VL 2: B3 VL 2
# B6: GPRC5D×CD3 bispecific antibody (ch7F5D4/hzsp34.24) (bispecific antibody, V domains shown)
# VH 1: DVQLQESGPGLVKPSQSLSLTCTVTGYSITSDYAWNWIRQFPGNKLEWMVYIDYTGRTSYNPSLKSRISLTRDTSKNQFFLQFNSVTTEDTATYYCARGNYGRYYYVMDYWGQGTSVTVSS
# VL 1: DIQMTQTTSSLSASLGDRVTISCRASQDIRNYLNWYQQRPDGTIKLLIYYTSRLHSGVPSRFSGSGSGTDYSLTISNLDQEDFATYFCQQGNMLPWTFGGGTSLEIK
# VH 2: B3 VH 2
# VL 2: B3 VL 2
# B7: GPRC5D×CD3 bispecific antibody hz5E12.1-P1/SP34.87 (bispecific antibody, V domains shown)
# VH 1: B4 VH 1
# VL 1: B4 VL 1
# VH 2: B3 VH 2 with G102Y
# VL 2: B3 VL 2
# B8: TS-F2-3 (ch7F5D4/SP34.24/38456) (antibody, human IgG1, kappa, lambda, L234A L235A)
# heavy 1: not shown
# light 1: DIQMTQTTSSLSASLGDRVTISCRASQDIRNYLNWYQQRPDGTIKLLIYYTSRLHSGVPSRFSGSGSGTDYSLTISNLDQEDFATYFCQQGNMLPWTFGGGTSLEIKRTVAAPSVFIFPPSDEQLKSGTASVVCLLNNFYPREAKVQWKVDNALQSGNSQESVTEQDSKDSTYSLSSTLTLSKADYEKHKVYACEVTHQGLSSPVTKSFNRGEC
# heavy 2: not shown
# light 2: QAVVTQEPSLTVSPGGTVTLTCRSSTGAVTTSNYANWVQQKPGQAPRGLIGGTNKRAPGVPARFSGSLLGDKAALTLLGAQPEDEAEYYCALWYSNLWVFGQGTKLTVLGQPKAAPSVTLFPPSSEELQANKATLVCLISDFYPGAVTVAWKADSSPVKAGVETTTPSKQSNNKYAASSYLSLTPEQWKSHRSYSCQVTHEGSTVEKTVAPTECS
# B9: TS-F2-2 (38456/SP34.24/HB15H1G1) (antibody, human IgG1, kappa, lambda, L234A L235A)
# heavy 1: not shown
# light 1: not shown
# heavy 2: not shown
# light 2: B8 light 2
# B10: TS-F2-1 (HB15H1G1/SP34.24/38456) (antibody, human IgG1, kappa, lambda, L234A L235A)
# heavy 1: not shown
# light 1: not shown
# heavy 2: not shown
# light 2: B8 light 2
# Assays:
# [1] = biological target: T1, CD3E on the surface of Jurkat-NFAT-Luc cells (UniProt P07766 23-207); assay: cell-based or functional assay
# [2] = biological target: T1, CD3E on the surface of Jurkat-NFAT-Luc …; assay: cell-based or functional assay; remark: listed apart in the source
# [3] = biological target: T1, CD3E on the surface of Jurkat-NFAT-Luc …; assay: cell-based or functional assay; remark: listed apart in the source
# Cyno CD3D&E-Bio = biological target: T2, Cyno CD3D&E-Bio (monkey (cyno), UniProt Q95LI5 22-117; Q95LI8 22-105, biotin-labeled (site not stated)); assay: BLI (Octet Red96e), SA or AHC sensors, 1:1 fit
# T2 construct: Bought heterodimer antigen; also called monkey CD3D&E heterodimer antigen (ACRO Biosystems); monkey CD3E
# Protocol: (§1) Sensors (Fortebio, Cat #18-5019) coupled to streptavidin protein (SA) or anti-human-Fc (AHC) were pre-wetted by immersion in 200 μL of SD buffer (1×PBS, 0.1% BSA, 0.05% tween-20). Exemplary antibodies and biotin-labeled or Fc-tagged BCMA and CD3D&E heterodimer antigens were diluted with SD buffer, respectively. 200 μL of SD buffer and diluted samples (100 nM) were taken and added to a 96-well black plate (Greiner, Cat #655209), respectively. The sensors and the samples were placed in Octet (Fortebio, Red96e). Data Acquisition 10.0 was executed and “New Kinetic Experiment” was selected. The sensors were arranged according to the positions of the samples, and the operation procedures and times were set as: Baseline 60 s, Loading 250 s, Baseline 100 s, Association 600 s and Dissociation 600 s. The experiment was conducted at a rotation speed of 1000 rpm and 30° C.
# (§2) The results were analyzed in “Data Analysis 10.0” software, with the buffer reference channel being subtracted. 1:1 binding was selected to fit the data, and kₒₙ, koff, and KD values for the exemplary antibodies were calculated.
# (§3) In experiments performed according to the above-mentioned assay, the affinities of the exemplary antibodies were detected using a human CD3D&E heterodimer antigen (ACRO Biosystems) and a monkey CD3D&E heterodimer antigen (ACRO Biosystems). The binding affinities of GPRC5D×CD3 bispecific antibodies hz5E12.1-P1/SP34.24 and hz5E12.1-P1/SP34.87 to human/monkey CD3D&E were also detected.
# Human CD3D&E-Bio = biological target: T3, Human CD3D&E-Bio (human, UniProt P07766 23-126; P04234 22-105, biotin-labeled (site not stated)); assay: BLI (Octet Red96e), SA or AHC sensors, 1:1 fit
# T3 construct: Bought heterodimer antigen; also called human CD3D&E heterodimer antigen (ACRO Biosystems); human CD3E
# Protocol: as §1, §2, §3
# [4] = biological target: T1, CD3E on the surface of Jurkat-NFAT-Luc …; assay: cell-based or functional assay; remark: listed apart in the source
# [5] = biological target: T1, CD3E on the surface of Jurkat-NFAT-Luc …; assay: cell-based or functional assay; remark: listed apart in the source
# T3 sequence (P07766 23-126 limits assumed, chain 1 of 2): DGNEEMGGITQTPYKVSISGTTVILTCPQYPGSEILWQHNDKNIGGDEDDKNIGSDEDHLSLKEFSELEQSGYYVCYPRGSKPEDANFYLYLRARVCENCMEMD
# T3 sequence (P04234 22-105 limits assumed, chain 2 of 2): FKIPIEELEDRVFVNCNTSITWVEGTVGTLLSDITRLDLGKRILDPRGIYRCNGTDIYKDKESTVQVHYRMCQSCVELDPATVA
# T1 sequence (P07766 23-207): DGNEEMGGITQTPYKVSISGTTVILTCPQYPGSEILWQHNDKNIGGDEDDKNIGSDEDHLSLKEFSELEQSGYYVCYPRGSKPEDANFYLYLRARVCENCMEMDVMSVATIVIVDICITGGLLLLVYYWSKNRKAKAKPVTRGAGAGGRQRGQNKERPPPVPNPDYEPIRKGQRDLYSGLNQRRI
# T2 sequence (Q95LI5 22-117 limits assumed, chain 1 of 2): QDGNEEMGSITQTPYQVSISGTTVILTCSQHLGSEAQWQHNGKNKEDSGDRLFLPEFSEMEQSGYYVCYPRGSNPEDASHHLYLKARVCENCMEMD
# T2 sequence (Q95LI8 22-105 limits assumed, chain 2 of 2): as the sequence (P04234 22-105 limits assumed, chain 2 of 2) above, with I5V, N15K, I20V, S32T, D33N, I34N, T64A, S74N, V83L counted along it
Binder,EC50 of Jurkat-NFAT-Luc luciferase activation; target cells huGPRC5D-GS-CHO [1],EC50 of Jurkat-NFAT-Luc luciferase activation; tumor cells H929 [1],EC50 of Jurkat-NFAT-Luc luciferase activation; tumor cells L363 [1],EC50 of Jurkat-NFAT-Luc luciferase activation; tumor cells U266 [1],EC50 of Jurkat-NFAT-Luc luciferase activation; tumor cells L363 [2],EC50 of Jurkat-NFAT-Luc luciferase activation; tumor cells 8226 [4],EC50 of Jurkat-NFAT-Luc luciferase activation; tumor cells H929 [4],EC50 of Jurkat-NFAT-Luc luciferase activation; tumor cells L363 [4],EC50 of Jurkat-NFAT-Luc luciferase activation; tumor cells U266 [4],other results
B1,0.00966 nM,3.79 nM,0.0771 nM,0.366 nM,,,,,,
B2,,2.2 nM,0.0617 nM,,,,,,,
B3,,,,,0.28 nM,,,,,EC50 of Jurkat-NFAT-Luc luciferase activation; tumor cells H929 [2]: 0.01 nM
B4,,,,,,0.00318 nM,0.00656 nM,0.00559 nM,0.0057 nM,EC50 of Jurkat-NFAT-Luc luciferase activation; tumor cells 8226 [3]: 0.00318 nM; EC50 of Jurkat-NFAT-Luc luciferase activation; tumor cells H929 [3]: 0.00656 nM; EC50 of Jurkat-NFAT-Luc luciferase activation; tumor cells L363 [3]: 0.00559 nM; EC50 of Jurkat-NFAT-Luc luciferase activation; tumor cells U266 [3]: 0.0057 nM; Kd (Cyno CD3D&E-Bio): 26 nM; koff (Cyno CD3D&E-Bio): 0.00319 s⁻¹; kon (Cyno CD3D&E-Bio): 123000 M⁻¹ s⁻¹; Kd (Human CD3D&E-Bio): 21.4 nM; koff (Human CD3D&E-Bio): 0.00335 s⁻¹; kon (Human CD3D&E-Bio): 156000 M⁻¹ s⁻¹; EC50 of Jurkat-NFAT-Luc luciferase activation; tumor cells ARD [5]: 0.00273 nM; EC50 of Jurkat-NFAT-Luc luciferase activation; tumor cells MM.1S [5]: 0.00225 nM
B5,,,,,,0.00482 nM,0.0596 nM,0.0366 nM,0.011 nM,
B6,0.00566 nM,0.00772 nM,0.00562 nM,0.0361 nM,,,,,,
B7,,,,,,0.0201 nM,0.0453 nM,0.0389 nM,0.145 nM,Kd (Cyno CD3D&E-Bio): 290 nM; koff (Cyno CD3D&E-Bio): 0.0169 s⁻¹; kon (Cyno CD3D&E-Bio): 58300 M⁻¹ s⁻¹; Kd (Human CD3D&E-Bio): 285 nM; koff (Human CD3D&E-Bio): 0.0176 s⁻¹; kon (Human CD3D&E-Bio): 61900 M⁻¹ s⁻¹; EC50 of Jurkat-NFAT-Luc luciferase activation; tumor cells ARD [5]: 0.0149 nM; EC50 of Jurkat-NFAT-Luc luciferase activation; tumor cells MM.1S [5]: 0.0183 nM
B8,0.00145 nM,0.00547 nM,0.00286 nM,0.047 nM,,,,,,
B9,,,,,0.13 nM,,,,,EC50 of Jurkat-NFAT-Luc luciferase activation; tumor cells H929 [2]: 0.01 nM
B10,,,,,0.24 nM,,,,,
